{
  "source": "paper PMC2688778",
  "about": "(Structure (London, England : 1993), 2009)",
  "binders": {"B1": {"name": "F25 (dsDNA)", "DNA 1": "TAGAGCTTAATTGCTGAATCTGGTG", "DNA 2": "CACCAGATTCAGCAATTAAGCTCTA"}},
  "test_in_all_cases": "fluorescence anisotropy",
  "key": {"lambda exonuclease": {"target": "T1, lambda exonuclease (bacteriophage lambda, UniProt P03697 1-226)", "T1 sequence": "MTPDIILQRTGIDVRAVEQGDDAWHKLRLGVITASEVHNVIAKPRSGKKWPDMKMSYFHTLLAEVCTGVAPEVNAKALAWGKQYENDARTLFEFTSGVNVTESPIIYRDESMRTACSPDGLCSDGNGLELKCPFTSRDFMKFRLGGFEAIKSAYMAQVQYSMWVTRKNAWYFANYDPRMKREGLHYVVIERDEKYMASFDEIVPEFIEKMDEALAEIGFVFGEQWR"}, "RecE564 K704A": {"target": "T2, RecE564 K704A (Escherichia coli K12, UniProt P15032 564-866, K704A)", "T2 sequence": "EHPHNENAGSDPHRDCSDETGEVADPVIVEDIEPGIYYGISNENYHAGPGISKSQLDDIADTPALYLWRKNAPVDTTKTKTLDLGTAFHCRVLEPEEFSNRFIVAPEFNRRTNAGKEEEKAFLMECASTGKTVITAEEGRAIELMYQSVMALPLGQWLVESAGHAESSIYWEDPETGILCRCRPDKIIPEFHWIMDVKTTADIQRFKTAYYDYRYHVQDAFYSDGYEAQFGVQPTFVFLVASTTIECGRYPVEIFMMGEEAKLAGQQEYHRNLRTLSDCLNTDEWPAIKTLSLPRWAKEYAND"}, "RecE564 P669A": {"target": "T3, RecE564 P669A (Escherichia coli K12, UniProt P15032 564-866, P669A)", "T3 sequence": "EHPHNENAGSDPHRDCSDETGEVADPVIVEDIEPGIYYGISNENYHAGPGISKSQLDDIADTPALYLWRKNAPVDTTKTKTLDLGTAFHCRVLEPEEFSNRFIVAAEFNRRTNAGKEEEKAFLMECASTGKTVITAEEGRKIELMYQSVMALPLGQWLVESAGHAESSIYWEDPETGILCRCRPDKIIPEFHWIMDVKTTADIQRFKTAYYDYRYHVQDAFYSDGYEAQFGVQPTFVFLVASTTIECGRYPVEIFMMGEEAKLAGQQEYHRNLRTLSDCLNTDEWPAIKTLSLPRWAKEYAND"}, "RecE564 P658L": {"target": "T4, RecE564 P658L (Escherichia coli K12, UniProt P15032 564-866, P658L)", "T4 sequence": "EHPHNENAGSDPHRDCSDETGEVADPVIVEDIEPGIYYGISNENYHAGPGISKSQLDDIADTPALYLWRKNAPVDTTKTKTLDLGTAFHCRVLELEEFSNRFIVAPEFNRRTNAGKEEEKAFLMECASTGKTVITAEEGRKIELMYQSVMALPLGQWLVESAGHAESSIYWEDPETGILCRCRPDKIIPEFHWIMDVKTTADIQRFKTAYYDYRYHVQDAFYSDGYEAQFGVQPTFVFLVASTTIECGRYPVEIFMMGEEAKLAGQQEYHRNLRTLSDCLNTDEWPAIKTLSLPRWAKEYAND"}, "RecE564 H652A": {"target": "T5, RecE564 H652A (Escherichia coli K12, UniProt P15032 564-866, H652A)", "T5 sequence": "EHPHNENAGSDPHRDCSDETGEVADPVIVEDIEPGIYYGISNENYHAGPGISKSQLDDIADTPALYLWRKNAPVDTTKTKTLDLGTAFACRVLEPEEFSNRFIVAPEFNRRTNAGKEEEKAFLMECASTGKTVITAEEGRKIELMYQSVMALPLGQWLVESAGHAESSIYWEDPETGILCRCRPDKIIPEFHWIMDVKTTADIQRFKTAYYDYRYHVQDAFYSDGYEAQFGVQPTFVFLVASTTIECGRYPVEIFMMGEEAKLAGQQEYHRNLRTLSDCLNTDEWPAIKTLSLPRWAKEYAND"}, "RecE564 F665A": {"target": "T6, RecE564 F665A (Escherichia coli K12, UniProt P15032 564-866, F665A)", "T6 sequence": "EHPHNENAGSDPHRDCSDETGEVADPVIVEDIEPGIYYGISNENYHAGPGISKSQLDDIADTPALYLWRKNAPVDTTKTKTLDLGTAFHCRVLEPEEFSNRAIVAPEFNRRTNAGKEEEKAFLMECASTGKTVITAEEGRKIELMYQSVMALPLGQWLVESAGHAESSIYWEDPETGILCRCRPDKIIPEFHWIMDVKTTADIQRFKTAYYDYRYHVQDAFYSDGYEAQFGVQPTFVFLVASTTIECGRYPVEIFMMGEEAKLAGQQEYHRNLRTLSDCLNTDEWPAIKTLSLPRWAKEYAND"}, "RecE564 R768A": {"target": "T7, RecE564 R768A (Escherichia coli K12, UniProt P15032 564-866, R768A)", "T7 sequence": "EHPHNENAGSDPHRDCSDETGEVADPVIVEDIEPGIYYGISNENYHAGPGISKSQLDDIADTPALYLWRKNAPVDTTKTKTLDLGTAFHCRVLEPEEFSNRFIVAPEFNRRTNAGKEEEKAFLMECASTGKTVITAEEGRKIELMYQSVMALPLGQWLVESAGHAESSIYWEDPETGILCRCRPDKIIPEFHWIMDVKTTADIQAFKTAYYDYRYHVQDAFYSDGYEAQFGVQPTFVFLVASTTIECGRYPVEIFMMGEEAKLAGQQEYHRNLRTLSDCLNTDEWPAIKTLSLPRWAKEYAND"}},
  "data": [
    {"binder": "B1", "values": [
      {"measurement": "Kd", "setting": "lambda exonuclease", "value": "161 ± 2", "unit": "nM"},
      {"measurement": "Kd", "setting": "RecE564 K704A", "value": "330 ± 50", "unit": "nM"},
      {"measurement": "Kd", "setting": "RecE564 P669A", "value": "109 ± 8", "unit": "nM"},
      {"measurement": "Kd", "setting": "RecE564 P658L", "value": "80 ± 10", "unit": "nM"},
      {"measurement": "Kd", "setting": "RecE564 H652A", "value": "130 ± 10", "unit": "nM"},
      {"measurement": "Kd", "setting": "RecE564 F665A", "value": "200 ± 20", "unit": "nM"},
      {"measurement": "Kd", "setting": "RecE564 R768A", "value": "310 ± 30", "unit": "nM"}
    ]}
  ]
}
